In US20240376221A1 (Genmab, published 2024):
Like-named read-outs stand apart in the source and are kept apart here.

Experiments:
[1] = target: T1, human FcγRIa, cell surface-expressed (human, UniProt P12314 16-374); assay: flow cytometry, ExpiCHO-S cells transfected with human FcγRIa
T1 construct: whole, on cells; also called CD64; FcγR1a on ExpiCHO-S cells

[2] = target: T2, recombinant cynomolgus monkey OX40 (Acro Biosystems, cat. no. OXO-C5220) (cynomolgus monkey, UniProt P43489 29-216 (human entry), limits assumed); assay: BLI, Ab on AHC sensor, OX40 analyte
T2 construct: bought soluble protein; also called Cyno OX40
T2 chain: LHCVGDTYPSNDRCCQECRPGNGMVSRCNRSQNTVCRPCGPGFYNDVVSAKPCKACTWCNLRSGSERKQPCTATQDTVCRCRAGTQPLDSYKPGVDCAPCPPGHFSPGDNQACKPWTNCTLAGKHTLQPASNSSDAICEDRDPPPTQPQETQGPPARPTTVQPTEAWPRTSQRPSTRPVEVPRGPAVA
Procedure: (§1) Experiments were carried out while shaking at 1,000 RPM at 30° C. […] Next, AHC sensors were loaded with antibody (1 μg/mL in Sample Diluent) for 600 s. After a baseline measurement in sample diluent (100 s), the association (200 s) and dissociation (1,000 s) of human OX40 (Acro Biosystems, cat. no. OXO-H5224), and cynomolgus monkey OX40 (Acro Biosystems, cat. no. OXO-C5220) was determined using a concentration range of 0.78 to 800 nM with 2-fold dilution steps.
(§2) Data were acquired using Data Acquisition Software v12.0 (Sartorius) and analyzed with Data Analysis Software v12.0 (Sartorius). Data traces were corrected per antibody by subtraction of the reference sensor. The Y-axis was aligned to the last 10 s of the baseline and Interstep Correction alignment to dissociation as well as Savitzky-Golay filtering were applied. Data traces with a response<0.05 nm were excluded from analysis. […] The data was fitted with the 1:1 model using a window of interest for the association of 200 s and dissociation times set at 50 s, 200 s and 1,000 s. The dissociation time was chosen based upon R² value, visual inspection of the curve and at least 5% signal decay during the dissociation step.

[3] = target: T3, His-tagged human recombinant FcγRIa (human, UniProt P12314 16-288); assay: SPR, His-tagged FcγRIa captured on an anti-His chip, antibody injected
T3 construct: bought; also called FcγRIa (SPR); not shown: His-tag
T3 sequence (P12314 16-288 limits assumed): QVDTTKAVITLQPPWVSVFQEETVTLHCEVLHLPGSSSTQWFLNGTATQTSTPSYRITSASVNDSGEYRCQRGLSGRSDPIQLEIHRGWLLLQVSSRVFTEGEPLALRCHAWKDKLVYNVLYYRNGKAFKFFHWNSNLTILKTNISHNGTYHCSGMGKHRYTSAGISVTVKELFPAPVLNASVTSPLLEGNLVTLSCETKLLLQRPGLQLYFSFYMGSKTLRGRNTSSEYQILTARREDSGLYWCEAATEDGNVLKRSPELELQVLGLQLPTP
Procedure: (§3) Biacore Series S Sensor Chips CM5 (Cytiva, cat. no. 29104988) were covalently coated with anti-His antibody using amine-coupling and His capture kits (Cytiva, cat. no. BR100050 and cat. no. 29234602) according to the manufacturer's instructions. […] After three start-up cycles of HBS-EP+ buffer, antibody samples were injected for 12 cycles per sample to generate binding curves using antibody concentration ranges of 0 to 3,000 nM for FcγRIa and 0 to 10,000 nM for the other FcγRs. […] Dissociation from the anti-His-coated surface was performed by regeneration of the surface using 10 mM Glycine-HCl pH 1.5 (Cytiva, cat. no. BR100354).

[4] = target: T3, His-tagged human recombinant FcγRIa; assay: as above; remark: listed apart in the source
Procedure: as §3

[5] = target: T4, His-tagged human recombinant FcγRIIb (human, UniProt P31994 43-217); assay: SPR, His-tagged FcγRIIb captured on an anti-His chip, antibody injected
T4 construct: bought; also called FcγRII2b [sic]; not shown: His-tag
T4 sequence (looked up): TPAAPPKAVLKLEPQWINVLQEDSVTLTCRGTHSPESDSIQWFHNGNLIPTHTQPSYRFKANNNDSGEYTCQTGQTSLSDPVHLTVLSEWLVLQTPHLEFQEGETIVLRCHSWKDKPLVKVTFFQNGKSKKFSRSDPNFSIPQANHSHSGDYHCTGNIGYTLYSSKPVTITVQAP
Procedure: as §3

[6] = target: T5, His-tagged human recombinant FcγRIIa 167-His (human, UniProt P12318 34-218); assay: SPR, His-tagged FcγRIIa[H] captured on an anti-His chip, antibody injected
T5 construct: bought; also called FcγRIIa[H]; not shown: His-tag
T5 sequence (looked up): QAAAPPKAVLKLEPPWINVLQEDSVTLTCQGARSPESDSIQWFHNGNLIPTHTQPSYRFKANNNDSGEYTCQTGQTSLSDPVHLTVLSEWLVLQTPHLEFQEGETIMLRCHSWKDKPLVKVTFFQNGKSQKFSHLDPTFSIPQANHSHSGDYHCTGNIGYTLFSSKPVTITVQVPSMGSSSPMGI
Procedure: as §3

[7] = target: T6, His-tagged human recombinant FcγRIIa 167-Arg (human, UniProt P12318 34-218); assay: SPR, His-tagged FcγRIIa[R] captured on an anti-His chip, antibody injected
T6 construct: bought; also called FcγRIIa[R]; not shown: His-tag
T6 sequence (looked up): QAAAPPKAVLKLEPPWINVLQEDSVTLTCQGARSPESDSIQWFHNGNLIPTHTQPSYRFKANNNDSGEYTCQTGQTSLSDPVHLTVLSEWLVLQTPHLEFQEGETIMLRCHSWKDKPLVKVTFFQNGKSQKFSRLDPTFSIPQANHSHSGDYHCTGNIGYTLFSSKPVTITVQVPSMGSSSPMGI
Procedure: as §3

[8] = target: T7, His-tagged human recombinant FcγRIIIa 176-Phe (human, UniProt P08637 17-208); assay: SPR, His-tagged FcγRIIIa[F] captured on an anti-His chip, antibody injected
T7 construct: bought; also called FcγRIIIa[F]; not shown: His-tag
T7 sequence (P08637 17-208 limits assumed): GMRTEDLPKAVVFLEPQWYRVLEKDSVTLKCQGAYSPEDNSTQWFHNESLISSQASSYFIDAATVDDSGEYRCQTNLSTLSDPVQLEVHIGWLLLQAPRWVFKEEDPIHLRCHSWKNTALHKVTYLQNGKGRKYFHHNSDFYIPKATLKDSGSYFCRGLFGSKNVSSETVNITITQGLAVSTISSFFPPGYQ
Procedure: as §3

[9] = target: T8, His-tagged human recombinant FcγRIIIa 176-Val (human, UniProt P08637 17-208); assay: SPR, His-tagged FcγRIIIa[V] captured on an anti-His chip, antibody injected
T8 construct: bought; also called FcγRIIIa[V]; not shown: His-tag
T8 sequence (P08637 17-208 F176V limits assumed): as the sequence (P08637 17-208 limits assumed) above, with F160V counted along it
Procedure: as §3

[10] = target: T2, recombinant cynomolgus monkey OX40 …; assay: BLI, Ab on AHC sensor, OX40 analyte; * binding observed, less reliable fit
Procedure: as §1, §2

T1 sequence (P12314 16-374): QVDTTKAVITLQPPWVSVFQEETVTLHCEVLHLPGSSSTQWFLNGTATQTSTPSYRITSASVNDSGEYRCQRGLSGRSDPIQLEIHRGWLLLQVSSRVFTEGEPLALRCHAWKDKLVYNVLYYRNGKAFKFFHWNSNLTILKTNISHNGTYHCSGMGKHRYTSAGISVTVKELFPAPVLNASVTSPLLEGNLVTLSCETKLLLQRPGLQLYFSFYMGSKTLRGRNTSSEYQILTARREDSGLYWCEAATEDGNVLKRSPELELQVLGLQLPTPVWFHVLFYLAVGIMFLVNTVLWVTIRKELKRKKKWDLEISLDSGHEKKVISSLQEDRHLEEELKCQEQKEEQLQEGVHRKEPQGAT

B1: IgG1-CD134-003-HC6LC2 (antibody)
heavy: not shown
light: AAVLTQSPSSLSASVGDRVTITCQSSQIVVNNNFLSWYQQKPGKAPKLLIYDASNLASGVPDRFSGSGSGTDFTFTISSLQPEDIATYYCLGGYDDDAENAFGGGTKVEIKRTVAAPSVFIFPPSDEQLKSGTASVVCLLNNFYPREAKVQWKVDNALQSGNSQESVTEQDSKDSTYSLSSTLTLSKADYEKHKVYACEVTHQGLSSPVTKSFNRGEC
notes: variant of m1 without Fc mutations
binding result [1]: binds

B2: IgG1-CD134-003-HC6LC2-P329R-E345R (antibody)
heavy: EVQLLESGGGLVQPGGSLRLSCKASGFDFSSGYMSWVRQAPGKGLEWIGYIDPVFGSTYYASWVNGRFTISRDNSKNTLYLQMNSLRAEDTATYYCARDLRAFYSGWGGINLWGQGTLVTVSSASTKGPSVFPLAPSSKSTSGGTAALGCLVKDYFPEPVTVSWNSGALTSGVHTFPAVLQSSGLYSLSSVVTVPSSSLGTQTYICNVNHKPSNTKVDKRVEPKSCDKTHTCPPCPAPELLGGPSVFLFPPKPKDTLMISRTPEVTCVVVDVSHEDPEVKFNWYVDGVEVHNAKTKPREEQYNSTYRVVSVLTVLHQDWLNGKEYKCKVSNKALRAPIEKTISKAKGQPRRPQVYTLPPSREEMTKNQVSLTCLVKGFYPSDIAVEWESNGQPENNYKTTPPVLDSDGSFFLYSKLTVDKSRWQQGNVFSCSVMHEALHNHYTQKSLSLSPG
light: AAVLTQSPSSLSASVGDRVTITCQSSQIVVNNNFLSWYQQKPGKAPKLLIYDASNLASGVPDRFSGSGSGTDFTFTISSLQPEDIATYYCLGGYDDDAENAFGGGTKVEIKRTVAAPSVFIFPPSDEQLKSGTASVVCLLNNFYPREAKVQWKVDNALQSGNSQESVTEQDSKDSTYSLSSTLTLSKADYEKHKVYACEVTHQGLSSPVTKSFNRGEC
notes: humanized; human IgG1 with P329R and E345R (Eu); also called IgG1-CD134-003-HC6LC2-RR
Kd [2]: 27 nM
koff [2]: 0.0029 s⁻¹
kon [2]: 110000 M⁻¹ s⁻¹

B3: IgG1-CD134-003 (antibody)
heavy: not shown
light: AAVLTQTPSPVSAAVGGTVTIKCQSSQIVVNNNFLSWYQQKPGQPPKLLIYDASNLASGVPDRFSGSGSGTQFTLTISGVQSDDAATYYCLGGYDDDAENAFGGGTEVVVQRTVAAPSVFIFPPSDEQLKSGTASVVCLLNNFYPREAKVQWKVDNALQSGNSQESVTEQDSKDSTYSLSSTLTLSKADYEKHKVYACEVTHQGLSSPVTKSFNRGEC
notes: rabbit-human chimeric, wild-type IgG1 Fc
Kd [2]: 3.5 nM
koff [2]: 0.00096 s⁻¹
kon [2]: 280000 M⁻¹ s⁻¹
EC50 (read off the curve) [1]: ~0.7 µg/mL

B4: IgG1-CD134-007 (antibody)
heavy: not shown
light: AQVLTQTPSPVSAAVGGTVTISCQSSESVWNNNWLAWYQQKPGQPPNLLIYEASTLASGVSSRFKGSGSGTQFTLTVSEVQSDDAATYYCQGGYYDSSPIWTFGGGTEVVVKRTVAAPSVFIFPPSDEQLKSGTASVVCLLNNFYPREAKVQWKVDNALQSGNSQESVTEQDSKDSTYSLSSTLTLSKADYEKHKVYACEVTHQGLSSPVTKSFNRGEC
notes: rabbit-human chimeric IgG1
Kd [2]: 7.1 nM
koff [2]: 0.0018 s⁻¹
kon [2]: 260000 M⁻¹ s⁻¹

B5: IgG1-b12 (antibody)
heavy: not shown
VL: EIVLTQSPGTLSLSPGERATFSCRSSHSIRSRRVAWYQHKPGQAPRLVIHGVSNRASGISDRFSGSGSGTDFTLTITRVEPEDFALYYCQVYGASSYTFGQGTKLERK
notes: wild-type Fc domain; also called anti-HIV gp120 antibody IgG1-b12
EC50 (read off the curve) [3]: ~30 nM
EC50 (read off the curve) [4]: ~20 nM
binding result [5]: binds
binding result [6]: binds
binding result [7]: binds
binding result [8]: binds
binding result [9]: binds

B6: IgG1-CD134-012 (antibody)
heavy: not shown
light: DIVMTQTPASVEAAVGGTVTIKCQASENIYSSLAWYQQKPGQPPKLLIYRTSTLASGVPSRFKGSGSGTQFTLTISDLESDDAATYYCQSYYHNSGGGYDYGFGGGTEVVAKRTVAAPSVFIFPPSDEQLKSGTASVVCLLNNFYPREAKVQWKVDNALQSGNSQESVTEQDSKDSTYSLSSTLTLSKADYEKHKVYACEVTHQGLSSPVTKSFNRGEC
notes: rabbit-human chimeric IgG1
Kd [10]: 180 nM
koff [10]: 0.018 s⁻¹
kon [10]: 98000 M⁻¹ s⁻¹
